The values that follow come from US20250188193A1.

The target in assay [1] is soluble human FcγRIIb ectodomain (human) (UniProt P31994). The assay can be described thus: SPR (Biacore T200), mAb on Protein G chip, soluble FcγR ectodomain as analyte. (In general: Surface plasmon resonance follows binding to a sensor surface in real time, without labels.)
In assay [2] the target is soluble human FcγRIIa ectodomain (human) (UniProt P12318). The description is as above.
The target of assay [3] is soluble human FcγRIIIa ectodomain (human) (UniProt P08637). The assay is described as above.
Assay [4] addresses Rituximab G2 (galactosylated afucosylated glycoform). The assay can be described thus: SPR, 256 to 8 nM.
The target of assay [5] is Rituximab G2F (galactosylated fucosylated glycoform). The assay can be described thus: SPR, 256 to 8 nM.

soluble human FcγRIIb ectodomain (human), sequence (P31994 43-217): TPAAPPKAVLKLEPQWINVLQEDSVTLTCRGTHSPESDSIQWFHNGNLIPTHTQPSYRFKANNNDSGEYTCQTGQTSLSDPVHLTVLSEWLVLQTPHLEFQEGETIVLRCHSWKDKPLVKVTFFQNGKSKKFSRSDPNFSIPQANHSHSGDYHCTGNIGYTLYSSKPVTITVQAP
tetrameric FcγRIIIA, sequence (P08637 17-208 limits assumed): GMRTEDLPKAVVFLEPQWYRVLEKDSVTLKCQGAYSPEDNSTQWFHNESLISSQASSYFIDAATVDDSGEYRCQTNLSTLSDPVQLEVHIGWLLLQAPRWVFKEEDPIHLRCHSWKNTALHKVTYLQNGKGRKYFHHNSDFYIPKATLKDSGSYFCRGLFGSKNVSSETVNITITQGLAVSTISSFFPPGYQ

As usually defined, the Kd is the equilibrium constant for the complex coming apart. With “human IgG1 Fc variant printed 'GAALIE' in the second such row of Table 9 (r13) (antibody)”, the Fold (affinity relative to Wild-type) in assay [1] is 1.1 fold; in assay [2] it was 5.5 fold; in assay [3], 0.8 fold. Also, the results for the Kd in assay [1], in assay [2] and in assay [3] were 2890 nM, 186 nM and 903 nM, respectively.

human IgG1 Fc variant: ALIE (antibody): the Fold (affinity relative to Wild-type) in assay [1] turned out to be 0.8 fold; in assay [2] it was 0.5 fold. For the same substance, the dissociation constant (Kd) in assay [1] stood at 3920 nM; in assay [2], 2070 nM; in assay [3], 169 nM.

Regarding “human IgG1 Fc variant: Afucosylated (antibody)”, the values for the Kd in assay [1] and in assay [2] were 2220 nM and 747 nM, respectively.

As to “human IgG1 Fc variant: GAALIE (antibody)”, the values for the Fold (affinity relative to Wild-type) in assay [1] and in assay [2] were 0.8 fold and 2.7 fold, respectively. The results for the Kd in assay [1], in assay [2] and in assay [3] were 4150 nM, 387 nM and 218 nM, respectively.

On to “human IgG1 Fc variant: Wild-type (antibody)”, for which the figures for the Kd in assay [1], in assay [2] and in assay [3] were 3110 nM, 1030 nM and 740 nM, respectively. In addition, the Fold (affinity relative to Wild-type) in assay [2] and in assay [3] was 1 fold throughout.

Regarding “tetrameric FcγRIIIA (from UniProt P08637 17-208) (receptor)”, in assay [4], the KD1 was 29.9 nM and the KD2 came out at 2.3 nM. In assay [5], this substance showed a KD1 of 55.2 nM and a KD2 of 2.29 nM.
